From PMC10840515

Biological target: HLA-DR1 (HLA-DRA*0101, HLA-DRB1*0101) (human)
Test: ELISA

Substance	IC50
SARS-CoV-2 Spike peptide S486-505 (Wuhan HU-1)	1950 nM

Biological target: HLA-DR1 (HLA-DRA*0101, HLA-DRB1*0101) (human)
Test: ELISA
Remark: another data set of the same source

Substance	IC50
SARS-CoV-2 Spike peptide S167-181	> 10000 nM
SARS-CoV-2 Spike peptide S486-505 (Wuhan HU-1)	3050 nM
SARS-CoV-2 Spike peptide S511-530	2620 nM
SARS-CoV-2 Spike peptide S512-526	662 nM
SARS-CoV-2 Spike peptide S866-880	1150 nM
SARS-CoV-2 orf1ab (nsp3) peptide nsp3 1350-1364	140 nM
SARS-CoV-2 orf1ab (nsp14) peptide nsp14 6420-6434	541 nM

Biological target: HLA-DR1 (HLA-DRA*0101, HLA-DRB1*0101) (human)
Test: FP

Substance	IC50
E56-70	> 10000 nM
N49-63	493 nM
N108-122	> 10000 nM
N127-141	> 10000 nM
N224-238	2770 nM
N328-342	4010 nM
ORF8 43-57	430 nM
S235-249	8130 nM
S339-353	5990 nM
S344-358	> 10000 nM
S818-832	> 10000 nM
S990-1004	> 10000 nM
S1015-1029	7390 nM
nsp6 3801-3815	1520 nM
nsp12 5019-5033	2890 nM
